Test results from paper PMC3157015 (Biochemical and biophysical research communications, 2011).
No end group written: not given here.

How the values were obtained:
[1] = target: T1, Glutaminase Interacting Protein (GIP), recombinant (UniProt O14907 1-124); assay: NMR titration
T1 sequence (looked up): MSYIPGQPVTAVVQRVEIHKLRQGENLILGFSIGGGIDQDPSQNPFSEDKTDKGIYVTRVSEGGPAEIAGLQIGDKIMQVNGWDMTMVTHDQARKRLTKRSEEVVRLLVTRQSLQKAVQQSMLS

[2] = target: T1, Glutaminase Interacting Protein (GIP), …; assay: NMR titration; remark: listed apart in the source

## RDGDFQTEV-OH [BAI2 C-terminal peptide (RDGDFQTEV-COOH)]
[1]
  Kd: 97.8 µM
[2]
  KD from residue A66 of GIP: 86.6 µM
  KD from residue D38 of GIP: 92.5 µM
  KD from residue E17 of GIP: 64.8 µM
  KD from residue E62 of GIP: 102 µM
  KD from residue E102 of GIP: 118 µM
  KD from residue F46 of GIP: 138 µM
  KD from residue L71 of GIP: 85.8 µM
  KD from residue N81 of GIP: 84.3 µM
  KD from residue T86 of GIP: 104 µM
